From the supplement of paper PMC9112550, “Optimization of the antimicrobial peptide Bac7 by deep mutational scanning” (BMC Biology, 2022)

Each sequence was assayed on Escherichia coli TOP10 (assay: shrunken log2 fold change of peptide-encoding DNA abundance (4.5 h post-induction vs induction); higher = less antimicrobial activity (less host growth inhibition)). Details: time post-induction: 4.5 h; library: site-saturation at positions 5, 18, 19, 20.
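Further: peptides expressed intracellularly from a pBAD plasmid library in pooled LB shake-flask culture, induced with 0.3% L-arabinose, DNA abundance read by NGS, three biological replicates, DESeq2 with apeglm shrinkage.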

Sequence	shrunken log2 fold change
RRIRFRPPRLPRPRPRPRDRPRP	0.387
RRIRCRPPRLPRPRPRPQSMPRP	-0.419
RRIRRRPPRLPRPRPRPLMGPRP	0.018
RRIRIRPPRLPRPRPRPQKLPRP	-0.277
RRIRGRPPRLPRPRPRPEMNPRP	0.999
RRIRMRPPRLPRPRPRPYCQPRP	-0.0783
RRIRARPPRLPRPRPRPWMIPRP	-0.0822
RRIRGRPPRLPRPRPRPAQVPRP	0.274
RRIRCRPPRLPRPRPRPNDCPRP	-0.0147
RRIRARPPRLPRPRPRPIKLPRP	-0.16
RRIRHRPPRLPRPRPRPNMKPRP	-0.855
RRIRRRPPRLPRPRPRPRCMPRP	0.1
RRIRCRPPRLPRPRPRPQSSPRP	-0.103
RRIRVRPPRLPRPRPRPEDLPRP	0.084
RRIRFRPPRLPRPRPRPMCCPRP	-0.429
RRIRHRPPRLPRPRPRPFNYPRP	0.0485
RRIRNRPPRLPRPRPRPSYLPRP	-0.959
RRIRCRPPRLPRPRPRPQCYPRP	-0.474
RRIRCRPPRLPRPRPRPGMHPRP	-0.0345
RRIRPRPPRLPRPRPRPDWPPRP	0.524
RRIRNRPPRLPRPRPRPYGDPRP	-1.01
RRIRQRPPRLPRPRPRPITDPRP	0.00271
RRIRSRPPRLPRPRPRPDIEPRP	0.0454
RRIRFRPPRLPRPRPRPLNMPRP	-0.777
RRIRLRPPRLPRPRPRPSFEPRP	0.0552

Sequence	shrunken log2 fold change
RRIRNRPPRLPRPRPRPWDNPRP	-0.0545
RRIRDRPPRLPRPRPRPRHAPRP	0.324
RRIRDRPPRLPRPRPRPDADPRP	0.0193
RRIRLRPPRLPRPRPRPRRTPRP	0.354
RRIRGRPPRLPRPRPRPRYSPRP	-0.173
RRIRKRPPRLPRPRPRPWCAPRP	0.113
RRIRDRPPRLPRPRPRPDLCPRP	-0.0018
RRIRWRPPRLPRPRPRPTEWPRP	0.327
RRIRCRPPRLPRPRPRPKDSPRP	-0.198
RRIRLRPPRLPRPRPRPCLWPRP	-0.000705
RRIRYRPPRLPRPRPRPSAAPRP	-0.222
RRIRDRPPRLPRPRPRPPNIPRP	-0.0733
RRIRQRPPRLPRPRPRPKTEPRP	0.104
RRIRNRPPRLPRPRPRPSKGPRP	-0.00183
RRIRTRPPRLPRPRPRPQRDPRP	0.347
RRIRRRPPRLPRPRPRPLGVPRP	0.238
RRIRKRPPRLPRPRPRPIQGPRP	-0.0243
RRIRKRPPRLPRPRPRPFVHPRP	-0.254
RRIRGRPPRLPRPRPRPTWAPRP	0.987
RRIRHRPPRLPRPRPRPWGGPRP	0.39
RRIRERPPRLPRPRPRPHLTPRP	0.0373
RRIRYRPPRLPRPRPRPYATPRP	-0.175
RRIRHRPPRLPRPRPRPRRSPRP	0.0555
RRIRTRPPRLPRPRPRPKMDPRP	0.0289
RRIRVRPPRLPRPRPRPRKYPRP	-0.0723

Sequence	shrunken log2 fold change
RRIRNRPPRLPRPRPRPLGIPRP	-0.169
RRIRLRPPRLPRPRPRPPSPPRP	0.58
RRIRGRPPRLPRPRPRPVGWPRP	1.26
RRIRGRPPRLPRPRPRPGVHPRP	0.597
RRIRYRPPRLPRPRPRPTEPPRP	-0.131
RRIRVRPPRLPRPRPRPHSDPRP	0.0538
RRIRFRPPRLPRPRPRPSEEPRP	-0.196
RRIRDRPPRLPRPRPRPQTLPRP	0.0519
RRIRTRPPRLPRPRPRPCHAPRP	-0.0567
RRIRLRPPRLPRPRPRPYWHPRP	-0.61
RRIRPRPPRLPRPRPRPAKIPRP	0.0125
RRIRPRPPRLPRPRPRPVIMPRP	-0.634
RRIRYRPPRLPRPRPRPALWPRP	-0.0105
RRIRIRPPRLPRPRPRPNRTPRP	0.101
RRIRCRPPRLPRPRPRPVTPPRP	0.23
RRIRCRPPRLPRPRPRPAHSPRP	-0.129
RRIRSRPPRLPRPRPRPDQCPRP	-0.209
RRIRFRPPRLPRPRPRPQDPPRP	-0.00978
RRIRHRPPRLPRPRPRPFIWPRP	-0.162
RRIRSRPPRLPRPRPRPFGWPRP	0.0625
RRIRRRPPRLPRPRPRPLRGPRP	0.732
RRIRERPPRLPRPRPRPKDAPRP	-0.222
RRIRGRPPRLPRPRPRPWMIPRP	0.268
RRIRGRPPRLPRPRPRPNWPPRP	0.306
RRIRSRPPRLPRPRPRPRSIPRP	-0.0602
